Three molecules from patent publication US20190307899A1, “JUNCTOPHILIN-2 FRAGMENTS AND USES THEREFOR” (University of Lowa Research Foundation, published 2019) can be followed below.

Series [1] addresses T1, JP2(1-565) truncation with N-terminal FLAG tag (plasmid construct of FIG. 4).
T1 chain: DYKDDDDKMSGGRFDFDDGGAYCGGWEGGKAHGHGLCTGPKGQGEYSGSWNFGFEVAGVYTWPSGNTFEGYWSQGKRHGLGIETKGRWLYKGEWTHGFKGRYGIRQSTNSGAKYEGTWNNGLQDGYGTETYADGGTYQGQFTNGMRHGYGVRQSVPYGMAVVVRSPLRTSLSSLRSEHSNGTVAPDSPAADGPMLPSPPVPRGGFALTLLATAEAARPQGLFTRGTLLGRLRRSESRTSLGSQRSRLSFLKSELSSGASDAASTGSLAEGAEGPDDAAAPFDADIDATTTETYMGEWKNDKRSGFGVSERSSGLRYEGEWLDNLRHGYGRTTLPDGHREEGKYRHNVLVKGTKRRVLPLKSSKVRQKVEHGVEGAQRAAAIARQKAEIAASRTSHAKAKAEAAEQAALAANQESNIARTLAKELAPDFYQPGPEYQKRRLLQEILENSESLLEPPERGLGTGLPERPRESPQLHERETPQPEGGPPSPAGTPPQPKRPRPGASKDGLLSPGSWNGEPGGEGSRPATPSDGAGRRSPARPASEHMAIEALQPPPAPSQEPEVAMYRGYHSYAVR

Series [2] addresses T2, full-length JP2 Δ(153-158) with N-terminal FLAG and C-terminal HA tags.
T2 chain: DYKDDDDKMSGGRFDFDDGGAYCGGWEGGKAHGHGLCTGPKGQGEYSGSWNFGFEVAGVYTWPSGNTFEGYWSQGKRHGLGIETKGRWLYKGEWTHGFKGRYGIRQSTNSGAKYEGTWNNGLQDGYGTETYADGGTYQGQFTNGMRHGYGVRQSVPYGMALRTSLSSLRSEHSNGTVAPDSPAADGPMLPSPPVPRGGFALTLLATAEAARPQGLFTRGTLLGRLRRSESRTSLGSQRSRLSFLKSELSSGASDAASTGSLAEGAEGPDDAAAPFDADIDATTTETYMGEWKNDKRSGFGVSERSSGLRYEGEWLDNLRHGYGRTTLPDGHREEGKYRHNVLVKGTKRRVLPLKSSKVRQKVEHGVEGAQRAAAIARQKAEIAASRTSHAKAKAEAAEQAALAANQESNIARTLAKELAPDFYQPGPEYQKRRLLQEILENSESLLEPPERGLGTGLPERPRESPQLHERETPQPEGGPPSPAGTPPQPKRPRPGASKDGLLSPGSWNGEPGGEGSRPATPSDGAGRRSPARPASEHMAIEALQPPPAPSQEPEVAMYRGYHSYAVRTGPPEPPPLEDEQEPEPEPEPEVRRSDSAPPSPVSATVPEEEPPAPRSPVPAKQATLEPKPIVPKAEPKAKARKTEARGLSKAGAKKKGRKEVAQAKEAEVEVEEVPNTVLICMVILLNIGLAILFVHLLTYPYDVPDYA

Series [3] concerns the target T3, full-length JP2 Δ(198-205) with N-terminal FLAG and C-terminal HA tags.
T3 chain: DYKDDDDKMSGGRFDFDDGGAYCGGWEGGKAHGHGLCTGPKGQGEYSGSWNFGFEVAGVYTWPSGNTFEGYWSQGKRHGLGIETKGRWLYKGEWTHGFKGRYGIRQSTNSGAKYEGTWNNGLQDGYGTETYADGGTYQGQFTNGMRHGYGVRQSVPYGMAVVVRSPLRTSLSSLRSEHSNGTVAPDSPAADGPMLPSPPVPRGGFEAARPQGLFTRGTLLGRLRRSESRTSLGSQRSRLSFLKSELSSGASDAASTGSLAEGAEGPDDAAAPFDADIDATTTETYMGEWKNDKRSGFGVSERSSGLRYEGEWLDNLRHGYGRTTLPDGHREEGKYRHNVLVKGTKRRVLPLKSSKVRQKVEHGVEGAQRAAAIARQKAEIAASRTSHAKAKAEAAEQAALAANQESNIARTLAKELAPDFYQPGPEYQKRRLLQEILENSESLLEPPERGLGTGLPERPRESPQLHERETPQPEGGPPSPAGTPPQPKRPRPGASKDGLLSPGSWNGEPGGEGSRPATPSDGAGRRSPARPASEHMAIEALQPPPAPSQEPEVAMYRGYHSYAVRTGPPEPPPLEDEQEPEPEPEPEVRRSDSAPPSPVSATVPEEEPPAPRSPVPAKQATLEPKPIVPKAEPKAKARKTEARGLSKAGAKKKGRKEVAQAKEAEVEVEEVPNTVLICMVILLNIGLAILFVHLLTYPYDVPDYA

In series [4] the target is T4, full-length JP2 Δ(563-568) with N-terminal FLAG and C-terminal HA tags.
T4 chain: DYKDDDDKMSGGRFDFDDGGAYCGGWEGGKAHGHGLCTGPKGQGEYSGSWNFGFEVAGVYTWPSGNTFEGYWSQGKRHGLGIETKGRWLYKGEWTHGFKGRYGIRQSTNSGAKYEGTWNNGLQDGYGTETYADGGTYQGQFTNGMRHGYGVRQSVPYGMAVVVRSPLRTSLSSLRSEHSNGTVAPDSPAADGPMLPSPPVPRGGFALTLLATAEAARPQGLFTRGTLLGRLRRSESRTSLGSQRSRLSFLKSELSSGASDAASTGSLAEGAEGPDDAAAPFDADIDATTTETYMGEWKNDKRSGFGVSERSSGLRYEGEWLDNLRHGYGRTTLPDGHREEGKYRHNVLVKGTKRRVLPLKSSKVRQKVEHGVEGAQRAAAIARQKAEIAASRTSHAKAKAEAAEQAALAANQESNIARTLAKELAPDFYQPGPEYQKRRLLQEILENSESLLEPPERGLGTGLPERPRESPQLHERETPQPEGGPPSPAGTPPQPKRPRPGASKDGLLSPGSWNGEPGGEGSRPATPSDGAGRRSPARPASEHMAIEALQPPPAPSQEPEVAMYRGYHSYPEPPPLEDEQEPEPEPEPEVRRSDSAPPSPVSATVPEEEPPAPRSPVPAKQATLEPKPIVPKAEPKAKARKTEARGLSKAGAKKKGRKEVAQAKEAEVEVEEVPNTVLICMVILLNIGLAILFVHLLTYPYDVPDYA

For series [5], the target named is T5, junctophilin-2 (JP2), human, in human heart lysates, Q9BR39.
T5 chain: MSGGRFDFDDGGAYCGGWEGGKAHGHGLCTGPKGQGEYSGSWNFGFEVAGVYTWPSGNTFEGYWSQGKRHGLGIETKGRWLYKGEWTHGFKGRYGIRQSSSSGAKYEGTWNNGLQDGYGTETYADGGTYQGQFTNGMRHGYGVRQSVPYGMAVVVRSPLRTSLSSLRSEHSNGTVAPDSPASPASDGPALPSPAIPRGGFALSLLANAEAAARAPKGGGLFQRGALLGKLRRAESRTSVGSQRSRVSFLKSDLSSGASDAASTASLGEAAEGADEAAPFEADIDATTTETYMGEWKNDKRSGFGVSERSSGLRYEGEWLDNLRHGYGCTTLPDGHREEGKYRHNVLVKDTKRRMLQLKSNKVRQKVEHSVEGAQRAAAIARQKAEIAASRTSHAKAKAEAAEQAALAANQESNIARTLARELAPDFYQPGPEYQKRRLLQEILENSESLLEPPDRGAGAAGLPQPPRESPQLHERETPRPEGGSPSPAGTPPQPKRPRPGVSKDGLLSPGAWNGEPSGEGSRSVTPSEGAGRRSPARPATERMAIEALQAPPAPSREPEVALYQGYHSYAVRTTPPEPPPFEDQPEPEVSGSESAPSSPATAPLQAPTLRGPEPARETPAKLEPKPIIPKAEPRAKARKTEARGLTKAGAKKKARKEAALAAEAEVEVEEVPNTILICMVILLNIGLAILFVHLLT

For series [6], the target named is T6, junctophilin-2 (JP2), murine, full length, untagged.
T6 chain: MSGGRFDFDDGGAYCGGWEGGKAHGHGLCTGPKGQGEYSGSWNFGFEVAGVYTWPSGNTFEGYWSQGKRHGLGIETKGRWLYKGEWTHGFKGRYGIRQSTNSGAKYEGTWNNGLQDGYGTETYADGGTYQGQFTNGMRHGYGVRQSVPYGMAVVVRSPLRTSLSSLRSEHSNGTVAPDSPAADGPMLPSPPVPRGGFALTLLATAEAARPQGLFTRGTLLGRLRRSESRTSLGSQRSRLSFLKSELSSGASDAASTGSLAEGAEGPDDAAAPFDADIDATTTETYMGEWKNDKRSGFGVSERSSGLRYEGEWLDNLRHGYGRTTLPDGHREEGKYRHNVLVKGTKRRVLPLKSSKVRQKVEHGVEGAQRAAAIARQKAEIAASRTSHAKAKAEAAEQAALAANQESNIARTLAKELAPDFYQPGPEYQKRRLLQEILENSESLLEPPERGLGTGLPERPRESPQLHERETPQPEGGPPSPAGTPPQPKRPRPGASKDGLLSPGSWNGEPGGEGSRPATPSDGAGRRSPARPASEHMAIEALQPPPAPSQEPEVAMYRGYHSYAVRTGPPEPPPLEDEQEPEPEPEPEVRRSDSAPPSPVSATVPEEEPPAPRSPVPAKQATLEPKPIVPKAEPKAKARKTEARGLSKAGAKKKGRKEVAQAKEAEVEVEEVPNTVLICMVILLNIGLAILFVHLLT

Series [7] has as its target T7, type 2 ryanodine receptor (mouse, UniProt E9Q401 1-4966, limits assumed).
T7 construct: Endogenous prey of the co-immunoprecipitation; also called RyR2
The experiment in a line: co-immunoprecipitation with anti-HA, Western blot.

Series [8] deals with T8, Cav1.2 (voltage-gated L-type Ca2+ channel) (mouse, UniProt Q01815 1-2139).
T8 construct: Endogenous prey of the co-immunoprecipitation
The experiment in a line: co-immunoprecipitation with anti-HA, Western blot. (In general: A western blot detects proteins with antibodies after separation by electrophoresis.)

In series [9] the target is GST-JP2NT (junctophilin-2 residues 1-565) (Mus musculus, UniProt Q9ET78 SEQ:1-565). The experiment in a line: EMSA. The settings on record: tags: GST. In general terms: In EMSA bound probe runs differently from free probe, usually more slowly.

T8 sequence (Q01815 whole entry): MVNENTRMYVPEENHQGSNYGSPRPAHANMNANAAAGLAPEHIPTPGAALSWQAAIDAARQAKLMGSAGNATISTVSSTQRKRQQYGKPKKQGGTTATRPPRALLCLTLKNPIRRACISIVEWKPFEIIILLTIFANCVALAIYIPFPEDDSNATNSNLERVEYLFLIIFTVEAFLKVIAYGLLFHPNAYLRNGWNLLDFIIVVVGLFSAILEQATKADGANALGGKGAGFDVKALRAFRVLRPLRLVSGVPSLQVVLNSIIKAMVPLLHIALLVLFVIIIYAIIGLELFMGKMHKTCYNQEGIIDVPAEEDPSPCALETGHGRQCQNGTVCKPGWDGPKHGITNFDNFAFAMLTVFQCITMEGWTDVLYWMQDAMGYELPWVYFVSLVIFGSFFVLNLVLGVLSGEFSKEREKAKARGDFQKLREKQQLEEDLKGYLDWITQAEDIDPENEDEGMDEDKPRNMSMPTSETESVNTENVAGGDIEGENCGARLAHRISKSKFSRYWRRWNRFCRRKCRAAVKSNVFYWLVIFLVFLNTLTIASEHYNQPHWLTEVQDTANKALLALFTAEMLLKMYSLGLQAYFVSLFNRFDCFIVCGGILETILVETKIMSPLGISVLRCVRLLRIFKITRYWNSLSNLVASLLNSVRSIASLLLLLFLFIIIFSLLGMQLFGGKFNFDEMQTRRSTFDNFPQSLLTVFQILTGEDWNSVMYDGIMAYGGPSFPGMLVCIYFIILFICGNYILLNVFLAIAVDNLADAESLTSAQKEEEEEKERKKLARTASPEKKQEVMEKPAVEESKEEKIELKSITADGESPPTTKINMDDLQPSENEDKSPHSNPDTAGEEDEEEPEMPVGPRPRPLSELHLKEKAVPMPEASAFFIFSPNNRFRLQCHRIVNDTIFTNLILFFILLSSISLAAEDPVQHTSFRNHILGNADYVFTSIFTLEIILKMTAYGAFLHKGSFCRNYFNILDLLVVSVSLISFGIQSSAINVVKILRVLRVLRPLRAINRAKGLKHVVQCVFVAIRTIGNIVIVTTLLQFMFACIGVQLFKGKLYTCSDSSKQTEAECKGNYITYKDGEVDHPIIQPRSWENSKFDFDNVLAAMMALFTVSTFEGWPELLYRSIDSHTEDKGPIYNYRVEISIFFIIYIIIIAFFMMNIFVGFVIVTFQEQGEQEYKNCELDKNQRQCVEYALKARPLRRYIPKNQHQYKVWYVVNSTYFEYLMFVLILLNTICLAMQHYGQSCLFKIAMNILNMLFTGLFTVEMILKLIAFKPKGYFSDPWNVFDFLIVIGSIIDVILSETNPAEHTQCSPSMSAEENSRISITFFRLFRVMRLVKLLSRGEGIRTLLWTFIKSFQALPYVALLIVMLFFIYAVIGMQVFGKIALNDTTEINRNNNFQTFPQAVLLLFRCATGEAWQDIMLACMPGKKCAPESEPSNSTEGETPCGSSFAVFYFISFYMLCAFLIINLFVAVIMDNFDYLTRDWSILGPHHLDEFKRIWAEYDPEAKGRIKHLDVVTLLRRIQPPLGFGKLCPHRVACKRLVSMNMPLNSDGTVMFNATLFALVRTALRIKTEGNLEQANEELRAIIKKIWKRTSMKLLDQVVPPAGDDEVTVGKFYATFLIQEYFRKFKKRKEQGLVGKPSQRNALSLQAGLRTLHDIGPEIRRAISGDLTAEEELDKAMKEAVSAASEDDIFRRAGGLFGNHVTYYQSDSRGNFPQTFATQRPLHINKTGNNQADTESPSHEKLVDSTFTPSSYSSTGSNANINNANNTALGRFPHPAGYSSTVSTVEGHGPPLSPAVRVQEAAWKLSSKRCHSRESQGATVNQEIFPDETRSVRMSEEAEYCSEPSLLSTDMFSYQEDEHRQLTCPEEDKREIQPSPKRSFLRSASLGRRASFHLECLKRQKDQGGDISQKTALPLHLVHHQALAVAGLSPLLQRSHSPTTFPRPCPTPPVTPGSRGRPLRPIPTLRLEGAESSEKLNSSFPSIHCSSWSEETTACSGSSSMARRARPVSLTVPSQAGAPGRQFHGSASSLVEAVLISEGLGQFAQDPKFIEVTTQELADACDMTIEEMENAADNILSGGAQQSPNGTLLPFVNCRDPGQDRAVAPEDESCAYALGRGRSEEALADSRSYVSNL

B1: purified human calpain I (protein)
chain: SEEIITPVYCTGVSAQVQKQRARELGLGRHENAIKYLGQDYEQLRVRCLQSGTLFRDEAFPPVPQSLGYKDLGPNSSKTYGIKWKRPTELLSNPQFIVDGATRTDICQGALGDCWLLAAIASLTLNDTLLHRVVPHGQSFQNGYAGIFHFQLWQFGEWVDVVVDDLLPIKDGKLVFVHSAEGNEFWSALLEKAYAKVNGSYEALSGGSTSEGFEDFTGGVTEWYELRKAPSDLYQIILKALERGSLLGCSIDISSVLDMEAITFKKLVKGHAYSVTGAKQVNYRGQVVSLIRMRNPWGEVEWTGAWSDSSSEWNNVDPYERDQLRVKMEDGEFWMSFRDFMREFTRLEICNLTPDALKSRTIRKWNTTLYEGTWRRGSTAGGCRNYPATFWVNPQFKIRLDETDDPDDYGDRESGCSFVLALMQKHRRRERRFGRDMETIGFAVYEVPPELVGQPAVHLKRDFFLANASRARSEQFINLREVSTRFRLPPGEYVVVPSTFEPNKEGDFVLRFFSEKSAGTVELDDQIQANLPDEQVLSEEEIDENFKALFRQLAGEDMEISVKELRTILNRIISKHKDLRTKGFSLESCRSMVNLMDRDGNGKLGLVEFNILWNRIRNYLSIFRKFDLDKSGSMSAYEMRMAIESAGFKLNKKLYELIITRYSEPDLAVDFDNFVCCLVRLETMFRFFKTLDTDLDGVVTFDLFKWLQLTMFA
Turning to B1, the “in vitro calpain cleavage, Western blot with anti-FLAG” value in [1] was “this fragment can be further processed by calpain to generate N-I, N-II, and N-III fragments”. Also, the “in vitro calpain cleavage assay, Western blot” value in [2] was “completely abolished the generation of N-I in the in vitro calpain cleavage assay”; in series [3], “resulted in complete loss of the JP2 cleavage product N-II but had no effect on the generation of N-I”; in series [4], “led to complete loss of N-IV (FIG. 4D, d) and a severe reduction in C-I”. In series [5], the “in vitro calpain cleavage of human heart lysates, Western blot of JP2” value was “time-dependent and Ca^2+/calpain-dependent JP2 down-regulation”. Further, the “in vitro calpain cleavage of WT mouse heart lysates, Western blot of full-length JP2” value in series [6] was “significant reduction in full-length JP2 upon addition of calpain I”.

B2: JP2(566-end)-HA (other)
chain: TGPPEPPPLEDEQEPEPEPEPEVRRSDSAPPSPVSATVPEEEPPAPRSPVPAKQATLEPKPIVPKAEPKAKARKTEARGLSKAGAKKKGRKEVAQAKEAEVEVEEVPNTVLICMVILLNIGLAILFVHLLTYPYDVPDYA
notes: also called JP(566-end); Ad-JP2(566-end)
Consider B2, for which the binding result in series [7] and in series [8] was “no binding” throughout.

B3: TATA box variant TATAAT (dsDNA)
DNA 1: GGGATCTGAGTCGCAGTATAATAGAAGCTTTTCGGGCGTT
DNA 2: AACGCCCGAAAAGCTTCTATTATACTGCGACTCAGATCCC
modifications: [22]
Turning to B3, the binding result in series [9] is “binds”.
